Earlier results, collected in US12628856B2, “Nutritional composition having lipophilic compounds with improved solubility and bioavailability” (Abbott Laboratories, priority 2013, dated 2026).

B1: GSTP1: reference protein with published lutein Kd (protein, UniProt P09211 2-210, looked up)
Glutathione S-transferase P: PPYTVVYFPVRGRCAALRMLLADQGQSWKEEVVTVETWQEGSLKASCLYGQLPKFQDGDLTLYQSNTILRHLGRTLGLYGKDQQEAALVDMVNDGVEDLRCKYISLIYTNYEAGKDDYVKALPGQLKPFETLLSQNQGGKTFIVGDQISFADYNLLDLLLIHEVLAPGCLDAFPLLSAYVGRLSARPKLKAFLASPEYVNLPINGNGKQ
B2: StARD3: reference protein with published lutein Kd (protein, UniProt Q14849 1-445, looked up)
StAR-related lipid transfer …: MSKLPRELTRDLERSLPAVASLGSSLSHSQSLSSHLLPPPEKRRAISDVRRTFCLFVTFDLLFISLLWIIELNTNTGIRKNLEQEIIQYNFKTSFFDIFVLAFFRFSGLLLGYAVLRLRHWWVIAVTTLVSSAFLIVKVILSELLSKGAFGYLLPIVSFVLAWLETWFLDFKVLPQEAEEERWYLAAQVAVARGPLLFSGALSEGQFYSPPESFAGSDNESDEEVAGKKSFSAQEREYIRQGKEATAVVDQILAQEENWKFEKNNEYGDTVYTIEVPFHGKTFILKTFLPCPAELVYQEVILQPERMVLWNKTVTACQILQRVEDNTLISYDVSAGAAGGVVSPRDFVNVRRIERRRDRYLSSGIATSHSAKPPTHKYVRGENGPGGFIVLKSASNPRVCTFVWILNTDLKGRLPRYLIHQSLAATMFEFAFHLRQRISELGARA

Details: Kd Source: Published; read-out: Lutein Kd

| Molecule | Kd [nM] |
| --- | --- |
| B1 | 1350 |
| B2 | 450 |
